Results as given in publication PMC4532613 (Molecular and biochemical parasitology, 2015).

Target: the molecule itself
Test: SEC

B1: Ca^2+-binding mutant FCaBP^E151Q/E188Q, recombinant (natural protein)
chain: MGACGSKGSTSDKGLASDKDGKKAKDRKEAWERIRQAIPREKTAEAKQRRIELFKKFDKNETGKLCYDEVHSGCLEVLKLDEFTPRVRDITKRAFDKARALGSKLENKGSEDFVEFLEFRLMLCYIYDFFELTVMFDEIDASGNMLVDEEQLKRAVPKLEAWGAKVEDPAALFKELDKNGTGSVTFDQFAAWASAVKLDADGDPDNVPESA
stoichiometry N: 2
